The target of the assay is maltose-binding protein (MBP)-tagged mVP35 IID (Marburg virus, UniProt P35259). The assay can be described thus: pull-down.
Chain of maltose-binding protein (MBP)-tagged mVP35 IID (P35259 200-329): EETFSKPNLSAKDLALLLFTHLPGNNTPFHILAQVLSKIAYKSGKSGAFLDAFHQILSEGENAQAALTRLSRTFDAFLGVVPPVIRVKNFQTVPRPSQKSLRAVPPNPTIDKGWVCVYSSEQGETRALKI

B1: synthetic antigen-binding fragment sFab H3 (Fab, V domains shown)
VH: EVQLVESGGGLVQPGGSLRLSCAASGFNISYYYIHWVRQAPGKGLEWVASIYPYYGYTSYADSVKGRFTISADTSKNTAYLQMNSLRAEDTAVYYCARGSSWYGAHAFDYWGQGTLVTVSS
VL: DIQMTQSPSSLSASVGDRVTITCRASQSVSSAVAWYQQKPGKAPKLLIYSASSLYSGVPSRFSGSRSGTDFTLTISSLQPEDFATYYCQQGYYYAYSLITFGQGTKVEIK
For B1, the binding result was “binds”.

Values taken from article PMC6827488 (ACS infectious diseases, 2019).
